First the molecules themselves.
B1: HVS ORF57^103–120 (peptide)
peptide: SCKTSWADRVREAAAQRR
notes: also called WT HVS-ORF57^103–120; source: synthetic peptide (Peptide Protein Research Ltd)
B2: HVS ORF57^105–115 (peptide)
peptide: KTSWADRVREA
notes: also called WT HVS-ORF57^105–115; WT-ORF57^105–115; source: synthetic peptide (Peptide Protein Research Ltd)
B3: ICP27^1–138 (recombinant, for NMR) (domain or fragment)
chain: MATDIDMLIDLGLDLSDSDLDEDPPEPAESRRDDLESDSSGECSSSDEDMEDPHGEDGPEPILDAARPAVRPSRPEDPGVPSTQTPRPTERQGPNDPQPAPHSVWSRLGARRPSCSPEQHGGKVARLQPPPTKAQPAR
notes: HSV-1 ICP27, residues 1-138
B4: KSHV ORF57^100–110 (peptide)
peptide: NRYGKKIKFGT
notes: also called KSHV-ORF57^100–110 peptide; source: synthetic peptide (Peptide Protein Research Ltd)
B5: REF^54–155 (recombinant, for NMR) (domain or fragment)
chain: not shown
notes: 15N- or 13C/15N-labelled or unlabelled, by experiment; also called Δ53N
B6: HVS ORF57^8–120 (recombinant, for NMR) (domain or fragment)
chain: GISSDDDFDSSDSSSDEEESDTSPQIMKSDVTMASPPSTPEPSPDVSASTSNLKRERQRSPITWEHQSPLSRVYRSPSPMRFGKRPRISSNSTSRSCKTSWADRVREAAAQRR
B7: ICP27^103–112 (peptide)
peptide: SVWSRLGARR
notes: HSV-1 ICP27, residues 103-112; the dash in the printed line is an alignment gap; also called WT ICP27^103–112 peptide; source: synthetic peptide (Peptide Protein Research Ltd)
B8: ICP27^103–138 (peptide)
chain: GPLGSVWSRLGARRPSCSPEQHGGKVARLQPPPTKAQPAR
notes: remainder of the PreScission protease cleavage site; HSV-1 ICP27, residues 103-138; also called WT-ICP27^103–138; ICP27^103–138 WT peptide; source: expressed as GST-fusion from pGEX-6P-1, cleaved by PreScission protease on GSH resin, purified (Sephacryl S-100 HR); not shown: GST, N-terminal, cleaved
B9: ICP27^103–138 S114E (peptide)
chain: B8 chain with S16E
notes: remainder of the PreScission protease cleavage site; HSV-1 ICP27, residues 103-138 with S114E (mimic of phosphoserine 114); source: expressed as GST-fusion from pGEX-6P-1, cleaved by PreScission protease on GSH resin, purified (Sephacryl S-100 HR); not shown: GST, N-terminal, cleaved
B10: ICP27^103–110 (peptide)
peptide: SVWSRLGA
notes: HSV-1 ICP27, residues 103-110; the dash in the printed line is an alignment gap; also called WT ICP27^103–110 peptide; source: synthetic peptide (Peptide Protein Research Ltd)
B11: VZV ORF4^108–119 (peptide)
peptide: TGYARIERGHRR
notes: also called VZV-ORF4^108–119 peptide; source: synthetic peptide (Peptide Protein Research Ltd)

Changes are numbered by the printed parent chain. In names and notes the source's numbering stands. Some results are limits rather than exact numbers.

Holding throughout (details): both partners purified
In test [1] the target is B5. In words: NMR titration; […]; 30°C; […], pH 6.2.
For test [2], the target named is REF^1–155 (recombinant, for NMR) (murine, UniProt Q9JJW6 1-155). In words: NMR titration.
For test [3], the target named is B6. In words: NMR titration; […]; 30°C; […], pH 6.2.
The next test addresses T1, ICP27^103–112 R107A (Herpes simplex virus 1, R107A (stands in the printed letters)).
T1 construct: source: synthetic peptide (Peptide Protein Research Ltd)
In words: NMR titration; […]; 30°C; […], pH 6.2.

The next test addresses T2, HVS ORF57^103–120 R111A (Herpesvirus Saimiri, R111A (stands in the printed letters)).
T2 construct: source: synthetic peptide (Peptide Protein Research Ltd)
In words: NMR titration; […]; 30°C; […], pH 6.2.

The target in the next test is T3, HVS ORF57^103–120 V112A (Herpesvirus Saimiri, V112A (stands in the printed letters)).
T3 construct: source: synthetic peptide (Peptide Protein Research Ltd)
In words: NMR titration; […]; 30°C; […], pH 6.2.

In another test the target is T4, ICP27^103–112 L108A (Herpes simplex virus 1, L108A (stands in the printed letters)).
T4 construct: source: synthetic peptide (Peptide Protein Research Ltd)
In words: NMR titration; […]; 30°C; […], pH 6.2.

Another test addresses T5, HVS ORF57^103–120 W108A (Herpesvirus Saimiri, W108A (stands in the printed letters)).
T5 construct: source: synthetic peptide (Peptide Protein Research Ltd)
In words: NMR titration; […]; 30°C; […], pH 6.2.

For the next test, the target named is T6, ICP27^103–112 W105A (Herpes simplex virus 1, W105A (stands in the printed letters)).
T6 construct: also called mutant peptide W105A; source: synthetic peptide (Peptide Protein Research Ltd)
In words: NMR titration; […]; 30°C; […], pH 6.2.

In test [4] the target is B3. In words: NMR titration.

Eleven molecules from publication PMC3017119, “Structural Basis for the Recognition of Cellular mRNA Export Factor REF by Herpes Viral Proteins HSV-1 ICP27 and HVS ORF57” (PLoS Pathogens, 2011) can be followed below.

With B1, the Kd (usually the equilibrium constant for the complex coming apart) in test [1] was 45 ± 15 µM.

Consider B2, for which the Kd in test [1] was more than 1000 µM.

Regarding B3, in test [2], the binding result was “binds”.

Consider B4, for which the Kd in test [1] is more than 100000 µM.

B5: the Kd in test [3] is 78 ± 12 µM; with ICP27^103–112 R107A, more than 10000 µM; with HVS ORF57^103–120 R111A, 254 ± 50 µM; with HVS ORF57^103–120 V112A, 156 ± 32 µM; in the test with ICP27^103–112 L108A, more than 5000 µM; with HVS ORF57^103–120 W108A it was more than 7500 µM. The molecule further came in with a Kd in the test with ICP27^103–112 W105A of 550 ± 210 µM. Further, the binding result in test [4] is given as “binds”.

On to B6, for which, in test [2], the binding result is “binds”.

Take B7: the Kd in [1] came to 99 ± 30 µM.

Regarding B8, the Kd in test [1] worked out at 28 ± 8.7 µM.

As for B9, the Kd in test [1] amounted to 17 ± 7.9 µM.

Turning to B10, the Kd in [1] worked out at 25 ± 7 µM.

Turning to B11, the Kd in test [1] is more than 1000 µM.
